This note sets out measurements from US20080226630A1.

Holding throughout (test): cell-based or functional assay
Substrate in test [1]: F protein of RSV strain 18537 (human respiratory syncytial virus strain 18537 (subtype B)) (UniProt P13843)
Substrate in test [2]: F protein of RSV strain Long (human respiratory syncytial virus strain Long (subtype A)) (UniProt P12568)
Substrate in test [3]: F protein of RSV strain B1 (human respiratory syncytial virus strain B1 (subtype B)) (UniProt O36634)

F protein of RSV strain 18537 (human respiratory syncytial virus strain 18537 (subtype B)), sequence (P13843 26-574): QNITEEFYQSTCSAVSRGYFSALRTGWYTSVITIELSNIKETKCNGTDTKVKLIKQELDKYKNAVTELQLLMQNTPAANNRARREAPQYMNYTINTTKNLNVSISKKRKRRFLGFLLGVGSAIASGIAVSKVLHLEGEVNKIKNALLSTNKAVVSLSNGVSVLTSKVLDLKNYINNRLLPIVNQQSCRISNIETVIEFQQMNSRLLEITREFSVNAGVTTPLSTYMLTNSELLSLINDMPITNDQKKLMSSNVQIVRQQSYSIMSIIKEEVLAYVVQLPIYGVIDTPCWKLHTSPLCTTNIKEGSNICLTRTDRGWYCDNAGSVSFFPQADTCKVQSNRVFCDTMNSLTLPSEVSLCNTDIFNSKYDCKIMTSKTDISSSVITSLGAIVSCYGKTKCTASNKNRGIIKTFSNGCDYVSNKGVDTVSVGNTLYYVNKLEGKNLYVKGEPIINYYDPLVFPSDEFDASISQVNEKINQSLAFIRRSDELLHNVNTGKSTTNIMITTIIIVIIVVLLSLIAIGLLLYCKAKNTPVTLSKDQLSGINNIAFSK
F protein of RSV strain Long (human respiratory syncytial virus strain Long (subtype A)), sequence (P12568 26-574): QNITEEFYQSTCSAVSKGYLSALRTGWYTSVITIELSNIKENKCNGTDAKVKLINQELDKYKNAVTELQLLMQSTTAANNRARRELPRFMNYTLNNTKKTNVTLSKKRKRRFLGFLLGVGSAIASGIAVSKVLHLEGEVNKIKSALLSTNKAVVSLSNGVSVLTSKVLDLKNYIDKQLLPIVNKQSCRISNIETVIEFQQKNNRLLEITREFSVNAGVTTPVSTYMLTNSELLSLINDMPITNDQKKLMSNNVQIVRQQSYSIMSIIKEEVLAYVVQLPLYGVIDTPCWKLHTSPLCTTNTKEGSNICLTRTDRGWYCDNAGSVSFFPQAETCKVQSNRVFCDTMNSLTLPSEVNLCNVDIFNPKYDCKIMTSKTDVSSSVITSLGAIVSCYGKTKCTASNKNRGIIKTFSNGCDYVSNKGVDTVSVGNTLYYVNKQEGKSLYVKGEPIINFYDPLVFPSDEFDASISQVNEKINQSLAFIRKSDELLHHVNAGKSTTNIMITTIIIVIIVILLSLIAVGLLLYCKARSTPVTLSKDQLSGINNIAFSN
F protein of RSV strain B1 (human respiratory syncytial virus strain B1 (subtype B)), sequence (O36634 26-574): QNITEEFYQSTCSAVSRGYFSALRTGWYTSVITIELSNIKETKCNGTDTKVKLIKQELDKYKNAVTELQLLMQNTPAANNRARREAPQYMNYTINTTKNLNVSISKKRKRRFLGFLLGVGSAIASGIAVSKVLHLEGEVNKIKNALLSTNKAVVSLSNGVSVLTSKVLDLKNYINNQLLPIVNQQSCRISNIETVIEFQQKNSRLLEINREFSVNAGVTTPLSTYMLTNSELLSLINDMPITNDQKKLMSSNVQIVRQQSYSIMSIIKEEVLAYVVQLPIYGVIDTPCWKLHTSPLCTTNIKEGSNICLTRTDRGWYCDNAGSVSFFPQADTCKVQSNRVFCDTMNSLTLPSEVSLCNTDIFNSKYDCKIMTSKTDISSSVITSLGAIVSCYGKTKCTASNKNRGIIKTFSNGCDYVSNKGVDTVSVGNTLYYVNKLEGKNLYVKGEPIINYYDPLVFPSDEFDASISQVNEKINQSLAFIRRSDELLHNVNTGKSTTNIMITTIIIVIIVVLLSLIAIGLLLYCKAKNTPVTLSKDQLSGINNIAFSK

B1: antibody 894 (clone 894) (antibody, human IgG1, kappa, V domains shown)
VH: QVQLVESGGGVVQPGKSLRLSCAASGFRFSDYGMHWVRQAPSKGLEWVAVIWHDGSNIRYADSVRGRFSISRDNSKNTLYLQMNSMRADDTAFYYCARVPFQIWSGLYFDHWGQGTLVTVSS
VL: EIVMTQSPATLSVSPGERATLSCRASQSVGNNLAWYQQRPGQAPRLLIYGASTRATGIPARFSGSGSGTEFTLTISSLQSEDFAVYYCQQYDKWPETFGQGTKVDIKR
Regarding B1, the EC50, PRNT with complement, RSV 18537 in test [1] was determined as 0.07 µg/mL. For the same molecule, the EC50, PRNT with complement, RSV Long in test [2] came out at 0.08 µg/mL.

B2: antibody 831 (clone 831) (antibody, human IgG1, kappa, V domains shown)
VH: QVQLVQSGAEVKKPGASVKVSCKASANIFTYAMHWVRQAPGQRLEWMGWINVGNGQTKYSQRFQGRVTITRDTSATTAYMELSTLRSEDTAVYYCARRASQYGEVYGNYFDYWGQGTLVTVSS
VL: DIQMTQSPSTLSASVGDRLTITCRASQNIYNWLAWYQQKPGKAPKLLIYDASTLESGVPSRFSGSGSGTEFTLTISSLQPDDFATYYCQQYNSLSPTFGQGTKVEIKR
With B2, in test [1], the EC50, PRNT with complement, RSV 18537 came out at 0.72 µg/mL. Moreover, the EC50, PRNT with complement, RSV B1 in test [3] came to 1.66 µg/mL. The EC50, PRNT with complement, RSV Long in test [2] was determined as 0.08 µg/mL.

B3: antibody 818 (clone 818) (antibody, human IgG1, kappa, V domains shown)
VH: QVTLRESGPAVVKPTETLTLTCAFSGFSLNAGRVGVSWIRQPPGQAPEWLARIDWDDDKAFRTSLKTRLSISKDSSKNQVVLTLSNMDPADTATYYCARTQVFASGGYYLYYLDHWGQGTLVTVSS
VL: DIQMTQSPSSLSASVGDRVTITCRASQTIASYVNWYQQKPGRAPSLLIYAASNLQSGVPPRFSGSGSGTDFTLTISGLQPDDFATYYCQQSYSYRALTFGGGTKVEIKR
For the molecule B3, in test [1], the EC50, PRNT with complement, RSV 18537 is 0.21 µg/mL. For the same molecule, in test [2], the EC50, PRNT with complement, RSV Long was 1.86 µg/mL and the EC50, PRNT with complement, RSV Long (new determination) was found to be 0.15 µg/mL.

B4: antibody 800 (clone 800) (antibody, human IgG1, kappa, V domains shown)
VH: QVQLVESGGAVVQPGRSLRLSCEVSGFSFSDYGMNWVRQGPGKGLEWVAVIWHDGSNKNYLDSVKGRFTVSRDNSKNTLFLQMNSLRAEDTAVYYCARTPYEFWSGYYFDFWGQGTLVTVSS
VL: AIQLTQSPSSLSASVGDRVTLTCRASQGITDSLAWYQQKPGKAPKVLLYAASRLESGVPSRFSGRGSGTDFTLTISSLQPEDFATYYCQQYSKSPATFGPGTKVEIRR
With B4, the EC50, PRNT with complement, RSV B1 in test [3] was 0.16 µg/mL. Further, the EC50, PRNT with complement, RSV Long in test [2] was 0.15 µg/mL.

B5: antibody 880 (clone 880) (antibody, human IgG1, kappa, V domains shown)
VH: QITLKESGPTLVRPTQTLTLTCTFSGFSLSTSKLGVGWIRQPPGKALEWLALVDWDDDRRYRPSLKSRLTVTKDTSKNQVVLTMTNMDPVDTATYYCAHSAYYTSSGYYLQYFHHWGPGTLVTVSS
VL: DIQMTQSPSSLAASVGDRVTITCRASQTIASYVNWYQQKPGKAPNLLIYAASSLQSGVPSRFSGSGSGTDFTLTISSLQPEDFASYFCQQSYSFPYTFGQGTKLDIKR
As for B5, the EC50, PRNT with complement, RSV 18537 in test [1] was 0.95 µg/mL. The EC50, PRNT with complement, RSV B1 in test [3] turned out to be 0.4 µg/mL. The EC50, PRNT with complement, RSV Long in test [2] turned out to be 0.38 µg/mL.

B6: antibody 827 (clone 827) (antibody, human IgG1, kappa, V domains shown)
VH: QVQLVQSGAEVKKPGASVKVSCRVSGHTFTALSKHWMRQGPGGGLEWMGFFDPEDGDTGYAQKFQGRVTMTEDTATGTAYMELSSLTSDDTAVYYCATVAAAGNFDNWGQGTLVTVSS
VL: DIQMTQSPSSLAASVGDRVTITCRASQFISSYLHWYQQRPGKAPKLLMYAASTLQSGVPSRFSGSGSGTDFTLTISSLQPEDFATYYCQQSYTNPYTFGQGTKLEIKR
As for B6, in test [1], the EC50, PRNT with complement, RSV 18537 turned out to be 0.1 µg/mL. Also, the EC50, PRNT with complement, RSV Long in test [2] turned out to be 0.16 µg/mL.
